This is an account of results in PMC5741687, “A Novel Role for CSRP1 in a Lebanese Family with Congenital Cardiac Defects” (Frontiers in Genetics, 2017).

Assay [1] concerns the target HA-tagged TBX5 (UniProt Q99593). Kind of assay: co-IP; nuclear extracts (200 ug protein) of HEK293 cells transiently overexpressing both proteins; anti-HA on Dynabeads Protein G, 2 h at RT, washed three times with PBS; blot with anti-Flag, then stripped and probed with anti-HA.
Assay [2] concerns the target HA-tagged GATA4 (UniProt P43694). The description is as above.
The target in assay [3] is HA-tagged serum response factor (SRF) (UniProt P11831). The assay is described as above.
A further assay concerns the target HA-tagged GATA6 (UniProt Q92908). Described as above.
In assay [4] the target is HA-tagged serum response factor (SRF) (UniProt P11831).
The target of assay [5] is HA-tagged GATA4 (UniProt P43694).
HA-tagged GATA4 (UniProt P43694), sequence (P43694 whole entry): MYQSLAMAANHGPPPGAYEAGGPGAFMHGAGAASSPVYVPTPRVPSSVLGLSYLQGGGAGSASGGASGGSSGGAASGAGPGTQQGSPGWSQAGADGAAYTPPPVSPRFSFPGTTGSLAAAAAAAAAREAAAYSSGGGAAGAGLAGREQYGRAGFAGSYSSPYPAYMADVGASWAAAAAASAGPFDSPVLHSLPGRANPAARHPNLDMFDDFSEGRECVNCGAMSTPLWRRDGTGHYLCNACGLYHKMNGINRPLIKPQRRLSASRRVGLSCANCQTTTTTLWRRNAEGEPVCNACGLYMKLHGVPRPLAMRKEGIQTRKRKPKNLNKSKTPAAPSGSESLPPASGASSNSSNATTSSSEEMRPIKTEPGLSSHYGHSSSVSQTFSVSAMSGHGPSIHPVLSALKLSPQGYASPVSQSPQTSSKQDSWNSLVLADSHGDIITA
In assay [6] the target is HA-tagged GATA4 (UniProt P43694 1-442). The experiment in a line: cell-based or functional assay.
HA-tagged GATA4 (UniProt P43694 1-442), sequence (P43694 whole entry): as above
For assay [7], the target named is T1, HA-tagged serum response factor (SRF) (UniProt P11831 1-508).
T1 sequence (looked up): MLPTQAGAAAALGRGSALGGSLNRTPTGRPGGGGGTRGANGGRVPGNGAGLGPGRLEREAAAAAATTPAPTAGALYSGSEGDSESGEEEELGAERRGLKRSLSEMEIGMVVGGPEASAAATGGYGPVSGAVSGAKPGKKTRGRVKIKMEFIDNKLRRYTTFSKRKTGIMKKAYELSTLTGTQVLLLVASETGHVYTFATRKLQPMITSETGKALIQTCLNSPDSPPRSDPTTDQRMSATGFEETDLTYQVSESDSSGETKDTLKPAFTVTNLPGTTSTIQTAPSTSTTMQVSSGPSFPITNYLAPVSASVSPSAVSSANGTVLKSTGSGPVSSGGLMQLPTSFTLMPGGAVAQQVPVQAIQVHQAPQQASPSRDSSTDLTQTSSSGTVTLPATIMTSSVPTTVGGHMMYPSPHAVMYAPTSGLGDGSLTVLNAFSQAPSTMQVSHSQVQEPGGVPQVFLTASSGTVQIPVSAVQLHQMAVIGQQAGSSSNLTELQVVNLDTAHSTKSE
The experiment in a line: cell-based or functional assay.

The target in assay [8] is T2, HA-tagged TBX5 (UniProt Q99593 1-518).
T2 sequence (looked up): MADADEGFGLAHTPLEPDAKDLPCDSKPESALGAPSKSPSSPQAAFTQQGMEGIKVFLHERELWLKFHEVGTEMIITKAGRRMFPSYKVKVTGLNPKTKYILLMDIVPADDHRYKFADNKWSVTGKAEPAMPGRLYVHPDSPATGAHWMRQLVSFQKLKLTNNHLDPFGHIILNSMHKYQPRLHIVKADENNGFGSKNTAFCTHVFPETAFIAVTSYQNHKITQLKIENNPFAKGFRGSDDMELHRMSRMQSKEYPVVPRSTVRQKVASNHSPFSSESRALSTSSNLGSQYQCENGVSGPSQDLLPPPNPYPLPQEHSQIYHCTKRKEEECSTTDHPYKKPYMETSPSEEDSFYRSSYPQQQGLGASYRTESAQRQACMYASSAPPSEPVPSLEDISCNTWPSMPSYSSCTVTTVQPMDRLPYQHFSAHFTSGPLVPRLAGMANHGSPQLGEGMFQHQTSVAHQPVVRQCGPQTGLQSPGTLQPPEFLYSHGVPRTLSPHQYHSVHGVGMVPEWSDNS
Kind of assay: cell-based or functional assay.

HA-tagged GATA6, sequence (Q92908 whole entry): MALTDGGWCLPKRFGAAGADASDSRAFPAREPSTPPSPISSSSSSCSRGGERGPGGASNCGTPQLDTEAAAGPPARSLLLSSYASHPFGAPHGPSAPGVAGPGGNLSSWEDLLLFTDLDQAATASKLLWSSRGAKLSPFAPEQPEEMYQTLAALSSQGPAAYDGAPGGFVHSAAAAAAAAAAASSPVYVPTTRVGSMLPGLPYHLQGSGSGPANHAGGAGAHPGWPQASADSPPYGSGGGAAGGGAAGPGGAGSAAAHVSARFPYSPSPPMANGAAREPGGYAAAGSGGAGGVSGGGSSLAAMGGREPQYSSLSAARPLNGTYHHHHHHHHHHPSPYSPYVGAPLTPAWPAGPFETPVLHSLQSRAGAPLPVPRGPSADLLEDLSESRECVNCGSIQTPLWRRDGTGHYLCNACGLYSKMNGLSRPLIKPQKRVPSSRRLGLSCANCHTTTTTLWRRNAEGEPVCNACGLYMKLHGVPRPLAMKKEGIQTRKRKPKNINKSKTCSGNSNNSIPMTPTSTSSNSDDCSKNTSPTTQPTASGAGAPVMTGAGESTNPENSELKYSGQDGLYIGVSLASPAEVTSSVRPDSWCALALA

“Flag-tagged p.E154Vfs*99 CSRP1 mutant (from UniProt P21291 1-153) (natural protein)”: the percent decrease of the co-precipitation against wild-type CSRP1 with HA-tagged TBX5 [1] is less than 55.3%. In addition, the percent inhibition of the co-precipitation against wild-type CSRP1 with HA-tagged GATA4 [2] is less than 85%; in [3], 82%. The molecule further gave a percent increase of the co-precipitation against wild-type CSRP1 in the assay with HA-tagged GATA6 of 15%. Also, the percent inhibition of the synergy with SRF over the NPPA-luciferase promoter, co-transfection in HEK293 cells in assay [4] is 50%. In the assay with HA-tagged GATA4 [5], the synergy on the NPPA, VEGF and NOS3 luciferase promoters, co-transfection assays, fold activation (promoter of the number not told); synergy completely lost was 5 fold.

B1: Flag-tagged wild type human CSRP1 (natural protein, UniProt P21291 1-193, looked up)
chain: MPNWGGGKKCGVCQKTVYFAEEVQCEGNSFHKSCFLCMVCKKNLDSTTVAVHGEEIYCKSCYGKKYGPKGYGYGQGAGTLSTDKGESLGIKHEEAPGHRPTTNPNASKFAQKIGGSERCPRCSQAVYAAEKVIGAGKSWHKACFRCAKCGKGLESTTLADKDGEIYCKGCYAKNFGPKGFGFGQGAGALVHSE
Take B1: the “synergy on the NPPA, VEGF and NOS3 luciferase promoters, co-transfection assays, fold activation (promoter of the number not told)” value with HA-tagged GATA4 [6] came to 22 fold. Moreover, in assay [7], the “synergistic activation of the NOS3-luciferase promoter, co-transfection in HEK293 cells, fold activation” value came to 14 fold; the “synergistic activation of the NPPA-luciferase promoter, co-transfection in HEK293 cells, fold activation” value stood at 100 fold; the “synergistic activation of the VEGF-luciferase promoter, co-transfection in HEK293 cells, fold activation” value is 22.3 fold. The “synergistic activation of the NPPA, VEGF and NOS3 luciferase promoters, co-transfection in HEK293 (CSRP1 400 and 600 ng, TBX5 200 and 400 ng); highest value on the NOS3 promoter” value with HA-tagged TBX5 [8] was 40 fold.
